Laboratory results from PMC12753239.

How the values were obtained:
[1] = molecular target: zebrafish Ngly2 (amino acids: 45-663) (zebrafish (Danio rerio)); test: SEC; gel filtration at pH 4.0; elution around 150 kDa
[2] = molecular target: zebrafish Ngly2 (amino acids: 45-663) (zebrafish (Danio rerio)); test: SEC; gel filtration at pH 8.0; Superdex200 increase 10/300 GL, 20 mM Tris-HCl (pH 8.0), 150 mM NaCl; elution around 150 kDa

stoichiometry N [1]: 2
stoichiometry N [2]: 2
Substance: zebrafish Ngly2 (amino acids: 45-663) (enzyme)
